This note sets out measurements from patent US20090305963A1, “Lipocalin 2 for the Treatment, Prevention, and Management of Cancer Metastasis, Angiogenesis, and Fibrosis” (priority 2005, published 2009).

In one experiment the test system is 4T1-ras (R) cells. Nature of the experiment: In vitro invasion assay (Matrigel-coated Transwells). Format: cell-based, mouse. As to conditions: stable lipocalin 2 expression (RL) vs R cells; 16 hours. Here is the method:
FIG. 3 is a graph depicting the invasion migration of stable 4T1 clones using EV, R, and RL cells. Polycarbonate membranes of Transwells were coated with Matrigel® and cells were seeded. Sixteen hours later, cells were fixed, stained with Giemsa solution, and counted for each of the stable clones; EV, R, and RL.
Polycarbonate membranes (6.5 mm diameter, 8 μm pore size) of Transwells (Coster, N.Y.) were coated with Matrigel® (BD Biosciences, Franklin Lakes, N.J.) and cells were seeded (10^6 cells/100 μl) with DMEM including 0.1% serum. 16 hours later, cells were fixed, stained with Giemsa solution, and the upper surface of each membrane was scraped with a cotton swab. Cells that had reached the lower surface of the membrane (migrated cells) were counted in 20 random fields using a light microscope (×400).

A further experiment concerns VEGF. Nature of the experiment: Measurement of VEGF levels by ELISA in conditioned media of 4T1 cells. Format: cell-based, mouse. As to conditions: RL vs R cells; conditioned media, 2 days. As to the method: Conditioned media of 4T1 cells were collected after 2 days of incubation. Murine VEGF levels were determined in duplicate using a commercially available sandwich ELISA kit (R&D Systems, Minneapolis, Minn.), with a affinity purified polyclonal antibody specific for mouse VEGF has been pre-coated onto a microplate. Results were compared with a standard curve of mouse VEGF with a lower detection limit of 7 pg/mL. A model 680 microplate-reader (Bio-Rad Laboratories, CA) was used to measure light intensity correlating with VEGF binding.
A general note: In an ELISA, binding on a coated surface is turned into a signal by an enzyme label.

Another experiment relates to E-cadherin. The experiment is described as follows: EMT phenotype, E-cadherin and vimentin protein in 4T1 clones (microscopy, western blot). The note with it: RL cells compared to R cells. It counts as cell-based, mouse. The text has this: (§1) Cells were stained as described previously (Mammoto et al., Cancer Lett. 184:165-170, 2002) and images acquired with a Delta Vision system (Applied Precision, Issaquah, Wash.) equipped with an Axiovert 100 microscope (Carl Zeiss MicroImaging Inc., Shelton, Conn.) and a Photometrics 300 series scientific-grade cooled CCD camera, reading 12-bit images, and using the 63/1.4 NA plan-Neofluar objective. For immunoprecipitation and immunoblotting, tissues were weighed, diced, soaked in ice cold RIPA buffer with 1 mM phenylmethylsulfonyl fluoride (PMSF), 1 μg/ml Aprotinin, 1 mM Na3VO4, 1 nM NaF, homogenized on ice, centrifuged at 10,000 g for 10 minutes at 4° C., and the supernatant fluid collected as total cell lysate. Cultured cells were washed, scraped, and solubilized in a lysis buffer containing 20 mM Tris-HCl pH 7.5, 150 mM NaCl, 0.5% Triton X-100, 1% aprotinin, and 1 mM PMSF. After 20 minutes on ice, the cells were pelleted by centrifugation and the supernatants were used as a cell lysate. Cell lysates or immunoprecipitated cell lysates were separated by PAGE (NuPAGE® gels; Invitrogen, Carlsbad, Calif.), followed by electroblotting onto a polyvinylidenedifluoride membrane (PVDF). Protein bands were detected using SuperSignal® West Pico Chemiluminescent Substrate (Pierce Chemical Co., Rockford, Ill.) (Hanai et al., J. Cell. Biol. 158:529-539, 2002).
To assess the effects of lipocalin 2 on ras-mediated transformation, we chose a syngeneic spontaneously metastasizing murine breast cancer model (4T1 cell line) and accelerated its metastatic potential by introduction of constitutively active mouse H-ras mutant A12 using retrovirus. […] We generated stable clones of 4T1-ras cells expressing lipocalin 2 (RL) by transfection of a lipocalin 2 expression plasmid (lipocalin 2-pcDNA3.1). […] (FIG. 2A, lower panel, and FIG. 2B). […] Expression of E-cadherin in RL cells was dependent on the dose of lipocalin 2-pcDNA3.1 expression vector (transiently introduced in a population of R cells), on a conditioned medium containing lipocalin 2 (FIGS. 2D-E), as well as on recombinant lipocalin 2 protein. R cells shown in FIG. 2D were seeded in a 6-well plate and transfected with lipocalin 2 by FuGene 6 at 40% confluency. After 48 hours, cells were trypsinized, respread on 6-well plate, and transfected again in the same conditions. After 72 hours, cells were harvested and analyzed by western blotting. EV cells in FIG. 2E were seeded in a 6-well plate with 1 ml/well containing 10% FCS with DMEM and 2 ml of CM was added at 10% confluency. After 72 hours, cells were harvested and analyzed by western blotting. CM is a mixture of media from 293T cells transfected with lipocalin 2 and from 293 cells transfected with empty vector (pcDNA3.1).
For orientation: Immunoblotting shows a protein as a band on a membrane.

The test system of the next experiment is 4T1 primary tumor. Nature of the experiment: Western blot of total cell lysate from 4T1 primary tumors. It counts as in vivo, Balb/c mice.
Source text: 4T1 clones (EV, R and RL) were suspended in PBS and injected subcutaneously in the backs of Balb/c mice. 3 weeks later, primary tumor tissue was dissected, homogenized and the supernatant fluid was collected as total cell lysate. Western blot of total cell lysate from each primary tumor for the antigen is shown. GAPDH serves as a loading control. The E-cadherin, vimentin and GAPDH data is from Hanai et al., J. Biol. Chem. 280:13641-13647 (2005).
as §1
To determine whether lipocalin 2 could affect expression of anti-angiogenic factors in vivo, we injected EV, R, or RL cells subcutaneously in the backs of Balb/c mice and dissected the primary tumors at 3 weeks post-inoculation. As shown above and in Hanai et al., supra, E-cadherin and vimentin protein expression varied reciprocally in the three tumor types. We assessed the expression of VEGF and thrombospondin-1 (TSP-1) by western blot in each tumor tissue.

Another experiment deals with AKT. Nature of the experiment: Western blot for phospho-AKT. It counts as cell-based, mouse.
Source text: FIGS. 14A-14B are western blots for phospho-AKT (pAKT) showing the downregulation of ras-induced AKT phosphorylation, but not IGF-1 induced AKT phosphorylation, by lipocalin 2. FIG. 14A is a western blot for pAKT showing the lysate from each 4T1 clone (EV, R and RL). FIG. 14B is a western blot for pAKT showing the lysate from EV or RL cells treated with or without IGF-1. GAPDH serves as a loading control.
as §1, with “Cultured cells were washed, scraped, and solubilized in a lysis buffer containing 20 mM Tris-HCl pH 7.5, 150 mM NaCl, 0.5% Triton X-100, 1% aprotinin, and 1 mM PMSF. After 20 minutes on ice, the cells were pelleted by centrifugation and the supernatants were used as a cell lysate. Cell lysates or immunoprecipitated cell lysates were separated by PAGE (NuPAGE® gels; Invitrogen, Carlsbad, Calif.), followed by electroblotting onto a polyvinylidenedifluoride membrane (PVDF).” left out

The subject of another experiment is caveolin-1. The experiment is described as follows: Western blot of caveolin-1 expression in 4T1 clones. The note with it: RL vs R cells. It counts as cell-based, mouse.
Source text: FIGS. 17A-17C show the involvement of caveolin-1 in the MET-inducing and anti-angiogenic function of lipocalin 2.
as §1, with “Cell lysates or immunoprecipitated cell lysates were separated by PAGE (NuPAGE® gels; Invitrogen, Carlsbad, Calif.), followed by electroblotting onto a polyvinylidenedifluoride membrane (PVDF).” left out

B1: lipocalin 2: human lipocalin 2 cDNA (HA tagged) in pcDNA3.1, stably expressed in 4T1-ras cells (RL clone); iron-siderophore binding protein (protein, UniProt P80188 21-198, looked up)
Neutrophil …: QDSTSDLIPAPPLSKVPLQQNFQDNQFQGKWYVVGLAGNAILREDKDPQKMYATIYELKEDKSYNVTSVLFRKKKCDYWIRTFVPGCQPGEFTLGNIKSYPGLTSYLVRVVSTNYNQHAMVFFKKVSQNREYFKITLYGRTKELTSELKENFIRFSKSLGLPENHIVFPVPIDQCIDG
modifications: HA tag
As to B1, the “reversal of ras induced invasiveness in vitro” value in the experiment with 4T1-ras (R) cells is reported as “approximately 76%”. The “suppression of ras-induced VEGF secretion” value in the experiment with VEGF is listed as “≈ 7.5 fold”. In addition, in the experiment on E-cadherin, the E-cadherin expression result is “re-expressed E-cadherin”, the cell morphology result is listed as “reverted to an epithelial morphology” and the vimentin expression result was “suppressed the expression of mesenchymal vimentin”. Moreover, in the experiment with 4T1 primary tumor (RL tumors vs R), the “E-cadherin in primary tumors” value is listed as “more E-cadherin” and the “vimentin in primary tumors” value is given as “less vimentin”. In the experiment with 4T1 primary tumor (RL vs R and EV tumors, 3 weeks post-inoculation), the “TSP-1 protein in primary tumors” value is listed as “returned in RL cells to the levels noted in EV cells”. For the same molecule, the “ras-induced increase of VEGF protein in primary tumors” value with 4T1 primary tumor (RL vs R tumors, 3 weeks post-inoculation) was “completely abrogated”. Moreover, in the experiment on AKT (EV or RL cells with or without IGF-1), the “IGF-1-induced phosphorylation of AKT” value was “does not downregulate”. In addition, the “ras-induced phosphorylation of AKT” value in the experiment on AKT (EV, R and RL clones) was “downregulates”. In the experiment on caveolin-1, the caveolin-1 expression entry is given as “rescued this loss of caveolin-1”.
